One may read the Kd as a measure of binding affinity in units of concentration.

For one data set, the target named is PRC2 (UniProt P42124;Q24338;Q9NJG9;Q24572 1-760;1-425;1-900;1-430). Put plainly: filter binding; 12 mM Hepes pH 7.9, 0.12 mM EDTA, 120 nM KCl (so in the source); probably mM), 1 mM DTT, 0.01% NP40, 12% glycerol, 0.01 nM probe, 30 min at 30 °C; EMSA plus 50 ng/uL BSA. Particulars: protein: recombinant; tags: 6xHis-E(Z); FLAG on Esc or Su(Z)12; copies: 1;1;1;1; label: Cy5 or Cy3 on DNA R; 32P at unlabelled 5' ends; blunt. In general terms: Mobility shift assays separate free from complexed probe on a gel.

In a further data set the target is PRC1ΔPh (UniProt P35820;P26017;Q9VB08 1-1601;1-390;1-435). The description is as above. Particulars: protein: recombinant; tags: FLAG; copies: 1;1;1; label: Cy5 or Cy3 on DNA R; 32P at unlabelled 5' ends; blunt.
Chain of PRC1ΔPh (P35820 whole entry, stated change not applied, chain 1 of 3): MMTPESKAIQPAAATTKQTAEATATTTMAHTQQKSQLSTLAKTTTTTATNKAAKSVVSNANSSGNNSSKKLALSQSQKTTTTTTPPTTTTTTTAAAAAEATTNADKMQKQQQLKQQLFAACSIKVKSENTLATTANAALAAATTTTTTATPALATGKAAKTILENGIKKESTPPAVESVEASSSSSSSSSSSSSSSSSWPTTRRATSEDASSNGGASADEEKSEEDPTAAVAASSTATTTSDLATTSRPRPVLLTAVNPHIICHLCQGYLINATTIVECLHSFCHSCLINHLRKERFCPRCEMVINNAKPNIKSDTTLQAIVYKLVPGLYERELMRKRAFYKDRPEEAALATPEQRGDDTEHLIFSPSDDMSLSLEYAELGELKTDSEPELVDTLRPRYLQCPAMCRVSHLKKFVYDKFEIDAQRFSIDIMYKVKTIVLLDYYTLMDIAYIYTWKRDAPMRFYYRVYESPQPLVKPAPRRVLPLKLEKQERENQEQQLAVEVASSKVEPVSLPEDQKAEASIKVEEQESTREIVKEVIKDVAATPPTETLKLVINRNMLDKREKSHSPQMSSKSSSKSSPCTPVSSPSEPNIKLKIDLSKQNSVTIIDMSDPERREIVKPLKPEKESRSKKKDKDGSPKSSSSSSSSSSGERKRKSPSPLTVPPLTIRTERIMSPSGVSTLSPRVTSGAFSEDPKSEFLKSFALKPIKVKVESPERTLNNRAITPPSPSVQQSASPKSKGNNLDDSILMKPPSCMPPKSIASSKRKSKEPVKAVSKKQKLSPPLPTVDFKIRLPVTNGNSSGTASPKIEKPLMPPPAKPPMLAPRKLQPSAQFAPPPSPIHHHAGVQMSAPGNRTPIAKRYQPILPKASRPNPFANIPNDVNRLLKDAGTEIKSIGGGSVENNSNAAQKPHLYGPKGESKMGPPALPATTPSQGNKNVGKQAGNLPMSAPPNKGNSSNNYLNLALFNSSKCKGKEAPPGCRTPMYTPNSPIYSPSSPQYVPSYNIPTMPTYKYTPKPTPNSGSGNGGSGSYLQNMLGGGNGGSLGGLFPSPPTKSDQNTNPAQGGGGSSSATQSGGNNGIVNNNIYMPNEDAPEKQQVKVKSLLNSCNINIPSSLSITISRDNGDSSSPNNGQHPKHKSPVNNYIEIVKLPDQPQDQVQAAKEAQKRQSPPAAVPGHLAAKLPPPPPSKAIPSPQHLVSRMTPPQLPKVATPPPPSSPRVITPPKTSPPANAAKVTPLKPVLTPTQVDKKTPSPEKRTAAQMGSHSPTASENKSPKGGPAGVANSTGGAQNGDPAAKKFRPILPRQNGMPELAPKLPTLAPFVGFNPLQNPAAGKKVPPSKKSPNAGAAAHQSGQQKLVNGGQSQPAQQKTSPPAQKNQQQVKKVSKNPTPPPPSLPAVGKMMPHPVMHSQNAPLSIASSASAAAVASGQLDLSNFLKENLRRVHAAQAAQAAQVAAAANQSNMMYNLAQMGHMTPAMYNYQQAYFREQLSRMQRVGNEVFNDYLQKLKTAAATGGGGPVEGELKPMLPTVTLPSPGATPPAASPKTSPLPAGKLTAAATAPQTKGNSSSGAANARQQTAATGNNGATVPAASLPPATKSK
Chain of PRC1ΔPh (P26017 whole entry, stated change not applied, chain 2 of 3): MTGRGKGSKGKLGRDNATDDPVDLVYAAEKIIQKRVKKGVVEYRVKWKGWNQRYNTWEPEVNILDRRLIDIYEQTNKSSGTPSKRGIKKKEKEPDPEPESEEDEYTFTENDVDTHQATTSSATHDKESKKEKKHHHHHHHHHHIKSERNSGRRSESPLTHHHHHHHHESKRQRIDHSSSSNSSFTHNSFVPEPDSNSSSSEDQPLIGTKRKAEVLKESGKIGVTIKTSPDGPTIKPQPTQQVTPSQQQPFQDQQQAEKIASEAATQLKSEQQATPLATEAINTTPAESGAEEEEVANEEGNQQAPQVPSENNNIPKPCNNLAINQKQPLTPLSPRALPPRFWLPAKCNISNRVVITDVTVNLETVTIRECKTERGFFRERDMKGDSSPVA
Chain of PRC1ΔPh (Q9VB08 whole entry, stated change not applied, chain 3 of 3): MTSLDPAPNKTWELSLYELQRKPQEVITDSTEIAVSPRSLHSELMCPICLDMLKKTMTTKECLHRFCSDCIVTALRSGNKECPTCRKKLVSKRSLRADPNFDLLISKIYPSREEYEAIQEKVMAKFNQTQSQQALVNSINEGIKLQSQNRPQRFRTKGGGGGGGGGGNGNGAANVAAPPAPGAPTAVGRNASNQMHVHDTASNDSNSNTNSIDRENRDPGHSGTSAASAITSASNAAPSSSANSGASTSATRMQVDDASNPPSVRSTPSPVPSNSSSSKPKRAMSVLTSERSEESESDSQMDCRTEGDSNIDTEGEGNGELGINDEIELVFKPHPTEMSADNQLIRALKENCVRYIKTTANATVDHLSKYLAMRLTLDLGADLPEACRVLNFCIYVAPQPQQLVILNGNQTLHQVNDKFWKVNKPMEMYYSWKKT

B1: vg PRE dsDNA (dsDNA)
DNA 1: CGGGTTGTCAAGAATTTTAACGGCCATTTCTGTGAGTGTGTGCGAGCTGCCAAGTGTGTGTGAGTGTGTTTGTGACAAACGCAAGCTCATGTAAGTGCTC
DNA 2: GAGCACTTACATGAGCTTGCGTTTGTCACAAACACACTCACACACACTTGGCAGCTCGCACACACTCACAGAAATGGCCGTTAAAATTCTTGACAACCCG
As to B1, the dissociation constant Kd in the data set with PRC2 stood at 6.44 nM; in the data set with PRC1ΔPh, 0.164 nM.

The values are drawn from article PMC7156742, “RNA-DNA strand exchange by the Drosophila Polycomb complex PRC2”.
